The values that follow come from article PMC4452151 (Cancer Science, 2015).

The target of one assay is CD3 on T cells (Homo sapiens (endogenous, Jurkat cells …, UniProt P07766)). In words: flow cytometry on cells. (Flow cytometry measures light scatter and fluorescence of single cells or particles in a stream.)
Assay [1] has as its target recombinant human CD138 protein (Homo sapiens (Human)., UniProt P18827, biotin (in the bio-layer interferometry experiment only)). In words: BLI. In general terms: Biolayer interferometry detects binding as a change in optical thickness at a sensor tip.

Sequence of recombinant human CD138 protein (P18827 23-254): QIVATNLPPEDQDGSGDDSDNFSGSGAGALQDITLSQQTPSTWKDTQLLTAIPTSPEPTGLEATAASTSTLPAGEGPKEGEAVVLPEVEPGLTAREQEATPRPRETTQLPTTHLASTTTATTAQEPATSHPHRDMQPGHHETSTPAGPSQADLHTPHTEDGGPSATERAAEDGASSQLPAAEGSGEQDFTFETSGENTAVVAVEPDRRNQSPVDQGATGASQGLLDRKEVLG
Sequence of CD3 on T cells (Homo sapiens (P07766 23-207): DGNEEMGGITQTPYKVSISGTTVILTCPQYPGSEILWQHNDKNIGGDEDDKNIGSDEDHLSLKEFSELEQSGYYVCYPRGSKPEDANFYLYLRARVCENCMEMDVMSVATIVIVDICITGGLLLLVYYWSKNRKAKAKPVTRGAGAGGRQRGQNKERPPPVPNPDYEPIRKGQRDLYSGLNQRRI

B1: aCD138-ScFv-hIgFc (scFv, V domains shown)
VH: QVQLQQSGSELMMPGASVKISCKATGYTFSNYWIEWVKQRPGHGLEWIGEILPGTGRTIYNEKFKGKATFTADISSNTVQMQLSSLTSEDSAVYYCARRDYYGNFYYAMDYWGQGTSVTVSS
VL: DIQMTQSTSSLSASLGDRVTISCSASQGINNYLNWYQQKPDGTVELLIYYTSTLQSGVPSRFSGSGSGTDYSLTISNLEPEDIGTYYCQQYSKLPRTFGGGTKLEIK
In general, Kd refers to a measure of binding affinity in units of concentration. Regarding B1, the binding result in the assay with CD3 on T cells is listed as “no binding (tested: 10 μg/mL)”. In addition, the Kd in assay [1] is 13.5 nM.
